Data published in patent publication US20230077205A1.

Legend:
[1] = molecular target: Protein A, MabSelect Sure (protein A affinity resin ligand); experiment: resin slurry partitioning on MabSelect Sure protein A resin; reference Ab6; Elute: 20 mM NaAcetate, pH 3.5
[2] = molecular target: Protein A, MabSelect Sure (protein A affinity resin ligand); experiment: resin slurry partitioning on MabSelect Sure protein A resin; reference Ab6; High salt wash: 10 mM NaPhosphate, pH 6.5, 0.5M NaCl
[3] = molecular target: Protein A, MabSelect Sure (protein A affinity resin ligand); experiment: resin slurry partitioning on MabSelect Sure protein A resin; reference Ab6; Strip: 100 mM acetic acid
[4] = molecular target: Protein A, MabSelect Sure (protein A affinity resin ligand); experiment: resin slurry partitioning on MabSelect Sure protein A resin; reference Ab6; Equil/wash: 10 mM NaPhosphate, pH 6.5

PLBL2 was tested. Which log α (log Kp PLBL2 - log Kp Ab6) [1] did it give?
Its log α (log Kp PLBL2 - log Kp Ab6) is -0.3.

Which results are given for PLBL2 (enzyme)?
log α (log Kp PLBL2 - log Kp Ab6) [2]: -2; log α (log Kp PLBL2 - log Kp Ab6) [3]: 0; log α (log Kp PLBL2 - log Kp Ab6) [4]: -2
